EC50 data for 1 molecule are collected here from patent publication CN116655791A (ZHEJIANG CHUQI BIOLOGICAL TECH CO LTD, dated 2023).

The target in this assay is T1, 人泌乳素受体-ECD蛋白 (25-234aa, Factor Xa site, 6xHis) (human).
T1 chain: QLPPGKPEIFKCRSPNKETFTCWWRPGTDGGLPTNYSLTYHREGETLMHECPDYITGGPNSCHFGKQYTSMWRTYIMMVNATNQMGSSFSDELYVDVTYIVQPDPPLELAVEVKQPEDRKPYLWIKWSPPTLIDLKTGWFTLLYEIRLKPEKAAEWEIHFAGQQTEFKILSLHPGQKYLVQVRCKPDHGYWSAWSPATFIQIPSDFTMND
The assay can be described thus: indirect ELISA on coated PRLR-ECD.

B1: 抗泌乳素受体的纳米抗体融合蛋白CQ24-Fc (Fc fusion)
chain: SQVQLVESGGGSVQAGGSLRLSCVASGYTRRGNCLGWFRQAPGKEREGVASIYASSGWTSYADSVKGRFTISLDNAKTMVYLQMNSLNPEDTAMYFCAAADTGLCGLGARIYSYWGQGTQVTVSSDKTHTCPPCPAPEAAGGPSVFLFPPKPKDTLMISRTPEVTCVVVDVSHEDPEVKFNWYVDGVEVHNAKTKPREEQYNSTYRVVSVLTVLHQDWLNGKEYKCKVSNKALPAPIEKTISKAKGQPREPQVYTLPPSREEMTKNQVSLTCLVKGFYPSDIAVEWESNGQPENNYKTTPPVLDSDGSFFLYSKLTVDKSRWQQGNVFSCSVMHEALHNHYTQKSLSLSLGK
notes: the signal peptide is left out here; also called CQ24纳米抗体; CQ24-VHH
As to B1, the EC50 was determined as 4.6 ng/mL.
